What was measured:
histone H3 [1] = molecular target: histone H3
histone H3 [2] = molecular target: histone H3 (Homo sapiens, UniProt P68431); assay: Kinase activity by histone H3 Ser10 phosphorylation (immunoblot); assay type: biochemical; details: in vitro, kinase buffer at 30° C; data not shown
Method: In the next attempt, the MS was inserted 5′ to the kinase domain of TLK1B. The recombinant TAT-TL-MS-K protein was produced, purified, and the activity of the protein was analyzed in vitro. […] Activity of the TAT-TL-MS-K was monitored indirectly by evaluation of histone H3 Seri 0 phosphorylation. Recombinant TAT-TLK1B or TAT-TL-MS-K was reacted with histone H3 at ratios of 1:10, 1:5, or 1:1 in a kinase buffer at 30° C. Reactions were loaded onto SDS-PAGE gels, and immunoblotted against anti-Ser10 H3 (Millipore). […] The functional, MMP-sensitive TAT-TL-MS-K will be used to confirm transduction in normal and cancer cells, and the ability of TAT-TL-MS-K to sensitize cancer cells such as head and neck cancer cells to radiation.

MT1-MMP catalytic domain = molecular target: T1, MT1-MMP catalytic domain (Homo sapiens, UniProt P50281); assay: In vitro cleavage by MT1-MMP catalytic domain (anti-His immunoblot); assay type: biochemical; details: for sensitivity to MT1-MMP cleavage: incubated with recombinant MT1-MMP catalytic enzyme
T1 construct: reacted with the MT1-MMP catalytic domain (EMD Millipore) at 22° C; purchased Calbiochem / EMD Millipore
Method: FIG. 3 depicts anti-His immunoblotting of TAT-TLK1B or TAT-MS-TLK1B, reacted with the MT1-MMP catalytic domain (EMD Millipore) at 22° C., as a function of time. 1.5 μg TAT-TLK1B, TAT-MS-TLK1B or TAT-TL-MS-K was reacted with 0.02 mU MT1-MMP, catalytic domain (Calbiochem) in reaction buffer containing 50 mM Tris pH 7.5, 150 mM NaCl, 5 mM CaCl2. The reactions were incubated at 22° C. for the indicated times (10, 20, 30, 60, or 120 minutes). […] Although MT1-MMP has a preference for the preferred cleavage site motif, that preference is neither strict nor absolute. Thus other proteins will be cleaved as well; what is important is the relative sensitivity of MS-containing proteins to MT1-MMP cleavage.

[3] = test system: HNSCC cells (cell line SCC40); assay: Protein transduction into SCC40 cells (anti-hemagglutinin immunoblot); assay type: cell-based; details: 40 μg protein, 6 hours after protein transduction
Method: HNSCC cells (cell line SCC40) were cultured on rat tail type I collagen plates in DMEM/0.1% BSA for 3 days before addition of 40 μg TAT-TLK1B or TAT-MS-TLK1B. Control cells (Untreated cells, Untx) were treated with an equal volume of OPTI-MEM™ reduced serum medium—a modification of Eagle's Minimum Essential Media, buffered with HEPES and sodium bicarbonate, and supplemented with hypoxanthine, thymidine, sodium pyruvate, L-glutamine, trace elements, and growth factors. FIG. 4A depicts the results of immunoblotting the respective cell lysates with anti-(MT1-MMP catalytic domain) antibody (Millipore). The arrow at 68 kD corresponds to pro-MT1-MMP. […] The 52 kD and 55 kD proteins were products of autocatalytic cleavage of MT1-MMP. […] Active MT1-MMP is membrane-bound, and is responsible for cleaving and activating pro-MMP-2 to active MMP-2. Active MT1-MMP can also undergo autocatalytic processing. The presence of a substrate such as TAT-MS-TLK1B or TAT-TL-MS-K will decrease the MT1-MMP autocatalysis. […] In other words, the observed decrease in MT1-MMP auto-cleavage is indirect evidence that the recombinant TAT-MS-fusion protein is being cleaved as designed.
FIG. 4B depicts results of immunoblotting the respective cell lysates with horseradish peroxidase-conjugated anti-hemagglutinin (Sigma) 6 hours after protein transduction. […]

rat salivary glands = details: delivered directly to rat salivary glands; preclinical, Sunavala-Dossabhoy 2012; cited from earlier work

MT1-MMP expressed by HNSCC cell line SCC40
MT1-MMP autoproteolytic products (52 kD and 55 kD) in SCC40 lysates, immunoblot (TAT-MS-TLK1B): The autoproteolytic products declined sharply in the presence of the TAT-MS-TLK1B

B1: TAT-TLK-MS fusion protein (protein)
chain: MHHHHHHSSGLVPRGSGMKETAAAKFERQHMDSPDLGTDDDDKAMAISDPNSSSVDKLGYGRKKRRQRRRGGSTMSGYPYDVPDYAGSMVKLAALESNKIQDLEKKEGRIDDLLRANCDLRRQIDEQQKLLEKYKERLNKCISMSKKLLIEKSTQEKLSSREKSMQDRLRLGHFTTVRHGASFTEQWTDGFAFQNLVKQQEWVNQQREDIERQRKLLAKRKPPTANNSQAPSTNSEPKQRKNKAVNGAENDPFVRPNLPQLLTLAEYHEQEEIFKLRLGHLKKEEAEIQAELERLERVRNLHIRELKRINNEDNSQFKDHPTLNERYLLLHLLGRGGFSEVYKAFDLYEQRYAAVKIHQLNKSWRDEKKENYHKHACREYRIHKELDHPRIVKLYDYFSLDTDTFCTVLEYCEGNDLDFYLKQHKLMSEKEARSIVMQIVNALRYLNEIKPPIIHYDLKPGNILLVDGTACGEIKITDFGLSKIMDDDSYGVDGMDLTSQGAGTYWYLPPECFVVGKEPPKISNKVDVWSVGVIFFQCLYGRKPFGHNQSQQDILQENTILKATEVQFPVKGSVPLSLRSGTPVVSSEAKAFIRRCLAYRKEDRFDVHQLANDPYLLPHMRRSNSSGNLHMAGLTASPTPPSSSIITY
phosphorylation of histone H3 Ser-10 (kinase activity) (histone H3 [1]): would not phosphorylate the TLK substrate, histone H3 Ser-10

B2: TAT-TLK-MS: SEQ ID NO: 3, fusion protein with MT1-MMP cleavage site in a presumptive loop towards the carboxy terminus (protein)
chain: B1 chain
modifications: TAT-TLK-MS fusion protein
kinase activity (phosphorylation of histone H3 Ser-10) (histone H3 [2]): would not phosphorylate the TLK substrate | sensitivity to MT1-MMP cleavage (MT1-MMP catalytic domain): sensitive to cleavage

B3: TAT-TL-MS-K fusion protein (protein)
chain: MHHHHHHSSGLVPRGSGMKETAAAKFERQHMDSPDLGTDDDDKAMAISDPNSSSVDKLGYGRKKRRQRRRGGSTMGGYPYDVPDYAGSMLKLAALESNKIQDLEKKEGRIDDLLRANCDLRRQIDEQQKLLEKYKERLNKCISMSKKLLIEKSTQEKLSSREKSMQDRLRLGHFTTVRHGASFTEQWTDGFAFQNLVKQQEWVNQQREDIERQRKLLAKRKPPTANNSQAPSTNSEPKQRKNKAVNGAENDPFVRPNLPQLLTLAEYHEQEEIFKLRLGHLKKEEAEIQAELERLERVRNLHIRELKRINNEDNSQFKAAAVPLSLRSGTSDHPTLNERYLLLHLLGRGGFSEVYKAFDLYEQRYAAVKIHQLNKSWRDEKKENYHKHACREYRIHKELDHPRIVKLYDYFSLDTDTFCTVLEYCEGNDLDFYLKQHKLMSEKEARSIVMQIVNALRYLNEIKPPIIHYDLKPGNILLVDGTACGEIKITDFGLSKIMDDDSYGVDGMDLTSQGAGTYWYLPPECFVVGKEPPKISNKVDVWSVGVIFFQCLYGRKPFGHNQSQQDILQENTILKATEVQFPVKPVVSSEAKAFIRRCLAYRKEDRFDVHQLANDPYLLPHMRRSNSSGNLHMAGLTASPTPPSSSIITY
phosphorylation of histone H3 Ser10, immunoblot with anti-Ser10 H3 (histone H3 [1]): TAT-TL-MS-K retained the native kinase activity, as indicated by phosphorylation of histone H3 (data not shown)

B4: TAT-TL-MS-K: SEQ ID NO: 4, fusion protein with MT1-MMP cleavage site inserted 5′ to the kinase domain of TLK1B (protein)
chain: B3 chain
modifications: TAT-TL-MS-K fusion protein
kinase activity (phosphorylation of histone H3 Ser-10) (histone H3 [2]): retained the native kinase activity | sensitivity to MT1-MMP cleavage (MT1-MMP catalytic domain): more sensitive to MT1-MMP cleavage than was TAT-TLK1B

B5: TAT-TLK1B: SEQ ID NO: 2, TAT-TLK1B fusion protein without the MS cleavage site (protein)
chain: MHHHHHHSSGLVPRGSGMKETAAAKFERQHMDSPDLGTDDDDKAMAISDPNSSSVDKLGYGRKKRRQRRRGGSTMSGYPYDVPDYAGSMVKLAALESNKIQDLEKKEGRIDDLLRANCDLRRQIDEQQKLLEKYKERLNKCISMSKKLLIEKSTQEKLSSREKSMQDRLRLGHFTTVRHGASFTEQWTDGFAFQNLVKQQEWVNQQREDIERQRKLLAKRKPPTANNSQAPSTNSEPKQRKNKAVNGAENDPFVRPNLPQLLTLAEYHEQEEIFKLRLGHLKKEEAEIQAELERLERVRNLHIRELKRINNEDNSQFKDHPTLNERYLLLHLLGRGGFSEVYKAFDLYEQRYAAVKIHQLNKSWRDEKKENYHKHACREYRIHKELDHPRIVKLYDYFSLDTDTFCTVLEYCEGNDLDFYLKQHKLMSEKEARSIVMQIVNALRYLNEIKPPIIHYDLKPGNILLVDGTACGEIKITDFGLSKIMDDDSYGVDGMDLTSQGAGTYWYLPPECFVVGKEPPKISNKVDVWSVGVIFFQCLYGRKPFGHNQSQQDILQENTILKATEVQFPVKPVVSSEAKAFIRRCLAYRKEDRFDVHQLANDPYLLPHMRRSNSSGNLHMAGLTASPTPPSSSIITY
modifications: TAT-TLK1B fusion protein
cleavage by MT1-MMP catalytic domain after 120 minutes (MT1-MMP catalytic domain; 1.5 μg protein, 0.02 mU MT1-MMP, 22° C, 120 minutes): still showed substantial activity | sensitivity to MT1-MMP cleavage (MT1-MMP catalytic domain): also cleaved by the enzyme, although not as rapidly | transduction into SCC40 cancer cells [3]: efficiently transduced | radiation-induced xerostomia (rat salivary glands): mitigate radiation-induced xerostomia

— patent US20160067316A1, “Selective Sensitization of Cancer Cells to, and Selective Protection of Non-Cancer Cells from Genotoxic Therapies” (Board of Supervisors of Louisiana State University and …, priority 2014, published 2016)
